Reference: patent US20170023592A1

Tests used:
human BNP(1-32) (human) [1] = test: sandwich ELISA, L21016 capture, mAb detection; BNP(1-32) 20 pg/ml
human BNP(1-32) (human) [2] = test: sandwich ELISA, L21016 capture, mAb detection; BNP(1-32) 39 pg/ml
human BNP(1-32) (human) [3] = test: sandwich ELISA, L21016 capture, mAb detection; BNP(1-32) 78 pg/ml
human BNP(1-32) (human) [4] = test: sandwich ELISA, L21016 capture, mAb detection; BNP(1-32) 625 pg/ml
human BNP(1-32) (human) [5] = test: sandwich ELISA, L21016 capture, mAb detection; BNP(1-32) 1,250 pg/ml
human BNP(1-32) (human) [6] = test: sandwich ELISA, L21016 capture, mAb detection; BNP(1-32) 2,500 pg/ml
human BNP(1-32) (human) [7] = test: sandwich ELISA, L21016 capture, mAb detection; BNP(1-32) 312.5 pg/ml
human BNP(1-32) (human) [8] = test: sandwich ELISA, L21016 capture, mAb detection; BNP(1-32) 5,000 pg/ml
human BNP(1-32) (human) [9] = test: sandwich ELISA, L21016 capture, mAb detection; BNP(1-32) 10,000 pg/ml
human BNP(1-32) (human) [10] = test: sandwich ELISA, L21016 capture, mAb detection; BNP(1-32) 156.25 pg/ml
human BNP(1-32) (human) [11] = test: sandwich ELISA, L21016 capture, mAb detection; BNP(1-32) 0 pg/ml (blank)
[12] = molecular target: human proBNP(1-108), recombinant, produced in E. coli (non-glycosylated) (human) (UniProt P16860); test: sandwich ELISA, hinge 76 capture, peroxidase-mAb detection; proBNP(1-108) 20 pg/ml
human proBNP(1-108), recombinant, produced in E. coli (non-glycosylated) (human), sequence (P16860 27-134): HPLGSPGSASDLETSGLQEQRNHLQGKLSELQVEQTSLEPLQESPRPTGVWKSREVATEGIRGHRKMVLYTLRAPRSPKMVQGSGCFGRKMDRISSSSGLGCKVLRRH

[13] = molecular target: human proBNP(1-108), recombinant, produced in E. coli (non-glycosylated) (human) (UniProt P16860); test: sandwich ELISA, hinge 76 capture, peroxidase-mAb detection; proBNP(1-108) 39 pg/ml
[14] = molecular target: human proBNP(1-108), recombinant, produced in E. coli (non-glycosylated) (human) (UniProt P16860); test: sandwich ELISA, hinge 76 capture, peroxidase-mAb detection; proBNP(1-108) 78 pg/ml
[15] = molecular target: human proBNP(1-108), recombinant, produced in E. coli (non-glycosylated) (human) (UniProt P16860); test: sandwich ELISA, hinge 76 capture, peroxidase-mAb detection; proBNP(1-108) 625 pg/ml
[16] = molecular target: human proBNP(1-108), recombinant, produced in E. coli (non-glycosylated) (human) (UniProt P16860); test: sandwich ELISA, hinge 76 capture, peroxidase-mAb detection; proBNP(1-108) 1,250 pg/ml
[17] = molecular target: human proBNP(1-108), recombinant, produced in E. coli (non-glycosylated) (human) (UniProt P16860); test: sandwich ELISA, hinge 76 capture, peroxidase-mAb detection; proBNP(1-108) 2,500 pg/ml
[18] = molecular target: human proBNP(1-108), recombinant, produced in E. coli (non-glycosylated) (human) (UniProt P16860); test: sandwich ELISA, hinge 76 capture, peroxidase-mAb detection; proBNP(1-108) 312.5 pg/ml
[19] = molecular target: human proBNP(1-108), recombinant, produced in E. coli (non-glycosylated) (human) (UniProt P16860); test: sandwich ELISA, hinge 76 capture, peroxidase-mAb detection; proBNP(1-108) 5,000 pg/ml
[20] = molecular target: human proBNP(1-108), recombinant, produced in E. coli (non-glycosylated) (human) (UniProt P16860); test: sandwich ELISA, hinge 76 capture, peroxidase-mAb detection; proBNP(1-108) 10,000 pg/ml
[21] = molecular target: human proBNP(1-108), recombinant, produced in E. coli (non-glycosylated) (human) (UniProt P16860); test: sandwich ELISA, hinge 76 capture, peroxidase-mAb detection; proBNP(1-108) 156.25 pg/ml
[22] = molecular target: human proBNP(1-108), recombinant, produced in E. coli (non-glycosylated) (human) (UniProt P16860); test: sandwich ELISA, hinge 76 capture, peroxidase-mAb detection; proBNP(1-108) 0 pg/ml (blank)
human BNP(1-32) (human) [23] = test: sandwich ELISA, L21016 capture, BNP(1-32) 5 ng/ml; detection by 50B7 0.5 ug/ml alone (no 20G7)

human BNP(1-32) (human), sequence (peptide, as listed by the source): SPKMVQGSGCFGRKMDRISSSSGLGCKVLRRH

| Substance | optical density (OD) at 490 nm (human BNP(1-32) (human) [1]) [OD] | optical density (OD) at 490 nm (human BNP(1-32) (human) [2]) [OD] | optical density (OD) at 490 nm (human BNP(1-32) (human) [3]) [OD] | optical density (OD) at 490 nm (human BNP(1-32) (human) [4]) [OD] | optical density (OD) at 490 nm (human BNP(1-32) (human) [5]) [OD] | optical density (OD) at 490 nm (human BNP(1-32) (human) [6]) [OD] | optical density (OD) at 490 nm (human BNP(1-32) (human) [7]) [OD] | optical density (OD) at 490 nm (human BNP(1-32) (human) [8]) [OD] | optical density (OD) at 490 nm (human BNP(1-32) (human) [9]) [OD] | optical density (OD) at 490 nm (human BNP(1-32) (human) [10]) [OD] | optical density (OD) at 490 nm (human BNP(1-32) (human) [11]) [OD] | optical density (OD) [12] [OD] | optical density (OD) [13] [OD] | optical density (OD) [14] [OD] | optical density (OD) [15] [OD] | optical density (OD) [16] [OD] | optical density (OD) [17] [OD] | optical density (OD) [18] [OD] | optical density (OD) [19] [OD] | optical density (OD) [20] [OD] | further results |
| --- | --- | --- | --- | --- | --- | --- | --- | --- | --- | --- | --- | --- | --- | --- | --- | --- | --- | --- | --- | --- | --- |
| 24C5 monoclonal antibody (HyTest, Turku, Finland) | 0.068 | 0.055 | 0.052 | 0.059 | 0.056 | 0.067 | 0.063 | 0.068 | 0.077 | 0.071 | 0.071 | 0.052 | 0.056 | 0.056 | 0.07 | 0.068 | 0.069 | 0.035 | 0.117 | 0.22 | optical density (OD) [21]: 0.055 OD; optical density (OD) [22]: 0.044 OD |
| 26E2 monoclonal antibody (HyTest, Turku, Finland) | 0.034 | 0.032 | 0.055 | 0.029 | 0.031 | 0.035 | 0.027 | 0.041 | 0.048 | 0.032 | 0.022 | 0.028 | 0.028 | 0.033 | 0.024 | 0.024 | 0.031 | 0.028 | 0.041 | 0.158 | optical density (OD) [21]: 0.027 OD; optical density (OD) [22]: 0.024 OD |
| 50B7 monoclonal antibody (HyTest, Finland) |  |  |  |  |  |  |  |  |  |  |  |  |  |  |  |  |  |  |  |  | Optical Density 490 nm (human BNP(1-32) (human) [23]): 1.3 OD |
